For two substances, Kd and EC50 results are on record in patent publication US20210147513A1.

Experiment [1] concerns the target S1(349-590)-hFc (MERS-CoV; human). Nature of the experiment: BLI (Octet RED96), wild type RBD-hFc. On the technique in general: In BLI a coated tip is dipped into the sample, and binding shifts an interference pattern.
In the next experiment the target is hDPP4 Cells (human) (UniProt P27487). Nature of the experiment: FACS. To be noted: Fc fusion.

The term Kd denotes a measure of binding affinity in units of concentration. The EC50 is the concentration needed to bring the measured effect to its halfway point.

Chain of hDPP4 Cells (human) (P27487 whole entry, the tested form may be a part): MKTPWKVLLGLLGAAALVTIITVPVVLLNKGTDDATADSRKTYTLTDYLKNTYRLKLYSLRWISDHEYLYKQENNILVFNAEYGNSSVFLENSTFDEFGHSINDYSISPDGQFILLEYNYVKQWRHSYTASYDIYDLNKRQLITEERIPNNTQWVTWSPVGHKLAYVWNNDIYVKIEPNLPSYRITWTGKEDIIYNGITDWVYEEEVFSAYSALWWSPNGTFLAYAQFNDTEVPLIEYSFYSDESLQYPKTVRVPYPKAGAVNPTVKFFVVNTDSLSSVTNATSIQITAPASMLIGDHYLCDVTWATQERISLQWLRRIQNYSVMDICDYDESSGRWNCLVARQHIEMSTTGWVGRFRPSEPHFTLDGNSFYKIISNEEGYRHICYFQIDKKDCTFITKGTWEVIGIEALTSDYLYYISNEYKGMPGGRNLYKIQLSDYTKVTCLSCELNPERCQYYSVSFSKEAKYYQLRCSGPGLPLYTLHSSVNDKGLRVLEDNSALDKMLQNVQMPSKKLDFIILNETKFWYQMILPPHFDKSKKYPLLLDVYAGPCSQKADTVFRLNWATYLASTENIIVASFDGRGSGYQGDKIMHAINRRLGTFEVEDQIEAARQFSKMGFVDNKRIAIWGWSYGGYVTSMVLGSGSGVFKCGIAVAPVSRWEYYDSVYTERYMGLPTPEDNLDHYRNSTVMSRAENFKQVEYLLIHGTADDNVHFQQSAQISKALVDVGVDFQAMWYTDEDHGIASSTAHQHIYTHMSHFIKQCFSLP

In experiment [1], “Recombinant soluble human DPP4 (from UniProt P27487 29-766) (receptor)” showed a dissociation constant Kd of 21.4 nM. Wt. RBD: the EC50 with hDPP4 Cells (human) is 0.015 µg/mL.
